Consider four molecules from patent US20250002610A1 (Genmab, published 2025).

The target of assay [1] is T1, human DR4 (Death Receptor 4), cell surface expressed on human tumor cell lines (human, UniProt O00220 24-468).
T1 construct: also called TNFRSF10A; TRAIL-R1
T1 sequence: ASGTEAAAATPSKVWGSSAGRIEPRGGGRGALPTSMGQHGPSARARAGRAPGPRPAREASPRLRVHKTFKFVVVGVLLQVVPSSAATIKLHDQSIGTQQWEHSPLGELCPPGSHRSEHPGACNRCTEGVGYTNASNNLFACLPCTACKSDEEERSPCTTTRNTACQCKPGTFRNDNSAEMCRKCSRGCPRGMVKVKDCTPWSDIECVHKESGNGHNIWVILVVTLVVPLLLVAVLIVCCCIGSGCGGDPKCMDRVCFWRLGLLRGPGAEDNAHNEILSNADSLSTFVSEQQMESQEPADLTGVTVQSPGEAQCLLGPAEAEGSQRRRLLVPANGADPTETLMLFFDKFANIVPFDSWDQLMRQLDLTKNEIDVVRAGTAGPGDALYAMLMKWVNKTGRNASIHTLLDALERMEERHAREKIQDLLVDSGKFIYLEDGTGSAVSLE
Description: flow cytometry, DLD-1 cells, n = 3.

Assay [2] concerns the target T2, cynomolgus monkey FAPα on Expi293F cells (cynomolgus monkey (Macaca fascicularis), UniProt Q12884 1-760 (human entry)).
T2 sequence: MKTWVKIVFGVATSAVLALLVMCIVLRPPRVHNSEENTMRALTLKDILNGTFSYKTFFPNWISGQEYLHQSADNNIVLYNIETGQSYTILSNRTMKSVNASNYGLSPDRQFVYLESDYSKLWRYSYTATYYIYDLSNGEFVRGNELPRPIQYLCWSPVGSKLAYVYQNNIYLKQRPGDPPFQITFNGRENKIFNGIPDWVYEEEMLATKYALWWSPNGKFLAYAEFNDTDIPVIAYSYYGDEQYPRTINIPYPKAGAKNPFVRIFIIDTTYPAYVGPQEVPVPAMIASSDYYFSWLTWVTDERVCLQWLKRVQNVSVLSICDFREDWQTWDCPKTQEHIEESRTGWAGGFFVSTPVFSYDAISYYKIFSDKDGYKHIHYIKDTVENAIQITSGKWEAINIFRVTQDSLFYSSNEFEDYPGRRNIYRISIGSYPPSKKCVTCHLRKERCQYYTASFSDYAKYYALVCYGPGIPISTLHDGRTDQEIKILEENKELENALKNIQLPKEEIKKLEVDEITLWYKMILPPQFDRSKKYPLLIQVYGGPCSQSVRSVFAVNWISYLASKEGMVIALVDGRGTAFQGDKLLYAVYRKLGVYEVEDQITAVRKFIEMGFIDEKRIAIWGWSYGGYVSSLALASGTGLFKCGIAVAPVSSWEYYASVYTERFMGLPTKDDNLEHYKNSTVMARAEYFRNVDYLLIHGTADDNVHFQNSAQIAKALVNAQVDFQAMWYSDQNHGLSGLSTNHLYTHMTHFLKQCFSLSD
Put plainly: flow cytometry, Expi293F cells expressing cynomolgus monkey FAPα, average ± SEM. On the procedure: (§1) Binding of BisG1-FAPα-FERL/DR4-FERR, BisG1-FAPα-FEAL/b12-FEAR and IgG1-FAPα-FERL to FAPα of species commonly used for nonclinical toxicology studies was assessed by flow cytometry using Expi293F cells transiently expressing FAPα from different animal species. IgG1-b12 was included as negative control.
(§2) Expi293F cells expressing recombinant FAPα from various species (human, cynomolgus monkey, dog, pig, rat or mouse) were seeded (20,000 cells/well) in 96-Well round bottom plates (Greiner Bio-one, Cat #650101). Antibody dilutions were prepared using FACS buffer, consisting of PBS (Capricorn Scientific, Cat #PBS-10XA, diluted to 1×PBS in distilled water)+1% BSA (Roche, Cat #10735086001)+0.02% Sodium Azide (Bio-World, Cat #41920044-3). Plates were centrifuged, supernatant was removed, and cells were resuspended in 100 μL of antibody dilutions (concentration range 30-0.00017 μg/mL with three-fold serial dilutions using FACS buffer) of BisG1-FAPα-FERL/DR4-FERR, BisG1-FAPα-FEAL/b12-FEAR, IgG1-FAPα-FERL and IgG1-b12 and incubated for 30 min at 4° C. […] After 30 min incubation at 4° C., cells were washed with FACS buffer and resuspended in FACS buffer supplemented with TO-PRO-3 Iodide viability marker (Invitrogen, Cat #T3605, diluted 1:4,000). Antibody binding to viable cells (gMFI of PE on TO-PRO-3 negative cells) was analyzed by flow cytometry on a FACS Celesta and FACS_Diva software (first two experiments) or iQue® 3 and FlowJo software (last experiment). gMFI was determined and visualized using GraphPad Prism. Binding curves were analyzed using nonlinear regression analysis. The concentration (pg/mL) at which 50% of the maximal effect was observed (EC₅₀) was derived from the fitted curves.

Assay [3] has as its target T3, human FAPα (Fibroblast activation protein alpha), cell surface expressed (human, UniProt Q12884 1-760).
T3 construct: Endogenous on human lung fibroblasts and CAFs
T3 sequence: T2 sequence with P29S, F261V, D417E
Put plainly: flow cytometry, Expi293F cells expressing human FAPα, average ± SEM. On the procedure:
as §1, §2

Substitutions are numbered along the chain they refer to.

B1: IgG1-DR4-FERR (antibody, V domains shown)
VH: QVQLQESGPGLVKPSGTLSLTCAVSGGSISSYSWWSWIRQPPGKGLEWIGELYHSGSTNYNPSLKSRVTISVDKSKNQFSLKLRSVTAADTAVYYCVRGVATIDYWGQGTLVTVSS
VL: QSALTQPPSASGSPGQSVTISCTGTSSDVGGYNFVSWYQQDPGKAPKLLIYEVTKRPSGVPDRFSGSKSGNTASLTVSGLQAEDEADYYCSSYAGSNNVMFGGGTKLTVLG
notes: Bivalent monoclonal IgG1 lambda
Take B1: the half-maximal effective concentration (EC50) in assay [1] is 0.23 µg/mL.

B2: BisG1-FAPα-FEAL/b12-FEAR (bispecific antibody, human IgG1, kappa)
heavy 1: EVQLLESGGGLVQPGGSPRLSCEASGFTFSSYALSWVRQAPGKGLEWVSAISGSGGGRYYADSVKGRFTISRDNSKNTLFLQMNSLRAEDTAVYYCAKEGYSSSGTYWDHWGQGTLVTVSSASTKGPSVFPLAPSSKSTSGGTAALGCLVKDYFPEPVTVSWNSGALTSGVHTFPAVLQSSGLYSLSSVVTVPSSSLGTQTYICNVNHKPSNTKVDKRVEPKSCDKTHTCPPCPAPEFEGGPSVFLFPPKPKDTLMISRTPEVTCVVVAVSHEDPEVKFNWYVDGVEVHNAKTKPREEQYNSTYRVVSVLTVLHQDWLNGKEYKCKVSNKALPAPIEKTISKAKGQPREPQVYTLPPSREEMTKNQVSLTCLVKGFYPSDIAVEWESNGQPENNYKTTPPVLDSDGSFLLYSKLTVDKSRWQQGNVFSCSVMHEALHNHYTQKSLSLSPG
light 1: AIQMTQSPSSVSASVGDRVTITCRASQGVSSWLAWYQQKPGRAPKLLIYVASTLQSGVPSRFSGSGSGTDFTLTINSLQPEDFATYYCQQANSFPPTFGQGTRLEMKRTVAAPSVFIFPPSDEQLKSGTASVVCLLNNFYPREAKVQWKVDNALQSGNSQESVTEQDSKDSTYSLSSTLTLSKADYEKHKVYACEVTHQGLSSPVTKSFNRGEC
heavy 2: QVQLVQSGAEVKKPGASVKVSCQASGYRFSNFVIHWVRQAPGQRFEWMGWINPYNGNKEFSAKFQDRVTFTADTSANTAYMELRSLRSADTAVYYCARVGPYSWDDSPQDNYYMDVWGKGTTVIVSSASTKGPSVFPLAPSSKSTSGGTAALGCLVKDYFPEPVTVSWNSGALTSGVHTFPAVLQSSGLYSLSSVVTVPSSSLGTQTYICNVNHKPSNTKVDKRVEPKSCDKTHTCPPCPAPEFEGGPSVFLFPPKPKDTLMISRTPEVTCVVVAVSHEDPEVKFNWYVDGVEVHNAKTKPREEQYNSTYRVVSVLTVLHQDWLNGKEYKCKVSNKALPAPIEKTISKAKGQPREPQVYTLPPSREEMTKNQVSLTCLVKGFYPSDIAVEWESNGQPENNYKTTPPVLDSDGSFFLYSRLTVDKSRWQQGNVFSCSVMHEALHNHYTQKSLSLSPG
light 2: EIVLTQSPGTLSLSPGERATFSCRSSHSIRSRRVAWYQHKPGQAPRLVIHGVSNRASGISDRFSGSGSGTDFTLTITRVEPEDFALYYCQVYGASSYTFGQGTKLERKRTVAAPSVFIFPPSDEQLKSGTASVVCLLNNFYPREAKVQWKVDNALQSGNSQESVTEQDSKDSTYSLSSTLTLSKADYEKHKVYACEVTHQGLSSPVTKSFNRGEC
notes: Fab-arm exchange of IgG1-FAPα-FEAL and IgG1-b12-FEAR
Turning to B2, the EC50 in assay [2] is 0.19 µg/mL; in assay [3], 0.3 µg/mL.

B3: BisG1-b12-FERL/DR4-FERR (bispecific antibody, human IgG1, kappa, lambda)
heavy 1: B2 heavy 2 with G246R, A275D, F415L, R419K
light 1: B2 light 2
heavy 2: QVQLQESGPGLVKPSGTLSLTCAVSGGSISSYSWWSWIRQPPGKGLEWIGELYHSGSTNYNPSLKSRVTISVDKSKNQFSLKLRSVTAADTAVYYCVRGVATIDYWGQGTLVTVSSASTKGPSVFPLAPSSKSTSGGTAALGCLVKDYFPEPVTVSWNSGALTSGVHTFPAVLQSSGLYSLSSVVTVPSSSLGTQTYICNVNHKPSNTKVDKRVEPKSCDKTHTCPPCPAPEFERGPSVFLFPPKPKDTLMISRTPEVTCVVVDVSHEDPEVKFNWYVDGVEVHNAKTKPREEQYNSTYRVVSVLTVLHQDWLNGKEYKCKVSNKALPAPIEKTISKAKGQPREPQVYTLPPSREEMTKNQVSLTCLVKGFYPSDIAVEWESNGQPENNYKTTPPVLDSDGSFFLYSRLTVDKSRWQQGNVFSCSVMHEALHNHYTQKSLSLSPG
light 2: QSALTQPPSASGSPGQSVTISCTGTSSDVGGYNFVSWYQQDPGKAPKLLIYEVTKRPSGVPDRFSGSKSGNTASLTVSGLQAEDEADYYCSSYAGSNNVMFGGGTKLTVLGQPKAAPSVTLFPPSSEELQANKATLVCLISDFYPGAVTVAWKADSSPVKAGVETTTPSKQSNNKYAASSYLSLTPEQWKSHRSYSCQVTHEGSTVEKTVAPTECS
notes: Fab-arm exchange of IgG1-b12-FERL and IgG1-DR4-FERR; also called bsIgG1-ctrl-FERLxDR4-FERR
In turn, B3 yielded an EC50 in assay [1] of 0.64 µg/mL.

B4: IgG1-FAPα-FERL (antibody)
heavy: B2 heavy 1 with G240R, A269D
light: B2 light 1
notes: Bivalent monoclonal IgG1 kappa
B4: the EC50 in assay [2] was determined as 0.1 µg/mL; in assay [3], 0.18 µg/mL.
